Substitutions are numbered along the chain they refer to.
T1: human LAG-3 on cells (HEK293-hLAG-3 stable cell line) (human, UniProt P18627 23-525)
T1 sequence: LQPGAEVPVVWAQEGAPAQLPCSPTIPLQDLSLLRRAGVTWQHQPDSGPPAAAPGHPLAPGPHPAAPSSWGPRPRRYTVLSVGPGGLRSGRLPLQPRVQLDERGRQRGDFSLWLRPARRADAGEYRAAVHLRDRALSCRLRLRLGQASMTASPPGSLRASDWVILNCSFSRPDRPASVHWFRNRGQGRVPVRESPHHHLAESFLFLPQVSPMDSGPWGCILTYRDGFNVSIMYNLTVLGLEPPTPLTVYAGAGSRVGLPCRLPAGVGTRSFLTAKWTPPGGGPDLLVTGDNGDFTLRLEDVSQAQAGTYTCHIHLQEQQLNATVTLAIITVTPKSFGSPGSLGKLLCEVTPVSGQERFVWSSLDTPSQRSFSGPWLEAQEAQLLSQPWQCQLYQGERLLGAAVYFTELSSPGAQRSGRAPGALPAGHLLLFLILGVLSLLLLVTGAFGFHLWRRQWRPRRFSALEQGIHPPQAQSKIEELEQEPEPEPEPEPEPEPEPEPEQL

T2: human LAG-3 ECD (antigen protein of the affinity test) (human, UniProt P18627 23-450)
T2 sequence: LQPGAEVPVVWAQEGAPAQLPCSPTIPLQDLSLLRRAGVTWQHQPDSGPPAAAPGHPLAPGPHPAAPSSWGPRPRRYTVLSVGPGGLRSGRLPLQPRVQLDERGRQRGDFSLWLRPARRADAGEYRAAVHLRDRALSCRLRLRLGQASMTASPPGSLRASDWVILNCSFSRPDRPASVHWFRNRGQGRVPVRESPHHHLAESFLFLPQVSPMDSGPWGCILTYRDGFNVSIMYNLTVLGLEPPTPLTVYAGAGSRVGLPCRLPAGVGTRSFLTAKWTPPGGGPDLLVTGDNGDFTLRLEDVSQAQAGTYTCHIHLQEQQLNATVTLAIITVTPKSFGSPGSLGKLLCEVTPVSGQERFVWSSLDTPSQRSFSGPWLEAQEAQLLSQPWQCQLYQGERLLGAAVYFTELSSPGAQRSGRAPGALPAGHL

B1: 405B8H3-2 humanized antibody (antibody, V domains shown)
VH: QVQLVQSGAEVKKPGASVKVSCKASGYTFTDYEMHWVRQAPGQGLEWMGATDPETGNSAYNQKFKGRVTMTADKSTSTVYMELSSLRSEDTAVYYCISTGWNDWGQGTTVTVSS
VL: DIQMTQSPSSLSASVGDRVTITCKASQDINSYLSWFQQKPGKAPKSLIYRADRLLDGVPSRFSGSGSGTDFTLTISSLQPEDFATYYCLQYDEFPYTFGQGTKLEIK
B2: 405B8H3-1 humanized antibody (antibody, V domains shown)
VH: B1 VH with A72R, K74T
VL: B1 VL
B3: 405B8H3-7 humanized antibody (antibody, V domains shown)
VH: B1 VH with M48I, V68A, V79A
VL: B1 VL with T69Q, F71Y
B4: 405B8H3-6 humanized antibody (antibody, V domains shown)
VH: B1 VH
VL: B1 VL with T69Q, F71Y
B5: 405B8H3-3 humanized antibody (antibody, V domains shown)
VH: B1 VH with M48I, V68A, V79A
VL: B1 VL
B6: 405B8H3-4 humanized antibody (antibody, V domains shown)
VH: B1 VH with R38K, M48I, R67K, V68A, V79A
VL: B1 VL
B7: 405B8H3-5 humanized antibody (antibody, V domains shown)
VH: B1 VH with A72R, K74T
VL: B1 VL with T69Q, F71Y
B8: 405B8H3-8 humanized antibody (antibody, V domains shown)
VH: B1 VH with R38K, M48I, R67K, V68A, V79A
VL: B1 VL with T69Q, F71Y
B9: 405B8H3-9 humanized antibody (antibody, V domains shown)
VH: B1 VH with A72R, K74T
VL: B1 VL with Q3K, A43S, T69Q, F71Y
B10: 405B8H3-10 humanized antibody (antibody, V domains shown)
VH: B1 VH
VL: B1 VL with Q3K, A43S, T69Q, F71Y
B11: 405B8H3-11 humanized antibody (antibody, V domains shown)
VH: B1 VH with M48I, V68A, V79A
VL: B1 VL with Q3K, A43S, T69Q, F71Y
B12: 405B8H3-12 humanized antibody (antibody, V domains shown)
VH: B1 VH with R38K, M48I, R67K, V68A, V79A
VL: B1 VL with Q3K, A43S, T69Q, F71Y

target: T1, human LAG-3 on cells (HEK293-hLAG-3 …); assay: FACS, HEK293-hLAG-3, antibody 40 nM
Source text: (§1) A. The binding of antibodies to LAG-3 expressing cells was detected by Flow cytometry (FACS), wherein the method was according to that of Example 5.

Row | Binder | Mean fluorescence intensity
1 | B1 | 272
2 | B2 | 257
3 | B3 | 252
4 | B4 | 254
5 | B5 | 253
6 | B6 | 251
7 | B7 | 257
8 | B8 | 242
9 | B9 | 249
10 | B10 | 238
11 | B11 | 230
12 | B12 | 229

target: T1, human LAG-3 on cells (HEK293-hLAG-3 …); assay: FACS, HEK293-hLAG-3, antibody 0.064 nM
Source text: as §1

Row | Binder | Mean fluorescence intensity
13 | B1 | 27
14 | B2 | 26
15 | B3 | 21
16 | B4 | 21
17 | B5 | 26
18 | B6 | 23
19 | B7 | 21
20 | B8 | 19
21 | B9 | 43
22 | B10 | 25
23 | B11 | 25
24 | B12 | 23

target: T1, human LAG-3 on cells (HEK293-hLAG-3 …); assay: FACS, HEK293-hLAG-3, antibody 8 nM
Source text: as §1

Row | Binder | Mean fluorescence intensity
25 | B1 | 245
26 | B2 | 244
27 | B3 | 230
28 | B4 | 242
29 | B5 | 230
30 | B6 | 217
31 | B7 | 243
32 | B8 | 213
33 | B9 | 246
34 | B10 | 229
35 | B11 | 220
36 | B12 | 207

target: T2, human LAG-3 ECD (antigen protein of the …); assay: SPR, CM5 chip, antibody captured by anti-human Fc IgG, antigen in flow, 1:1 fit
Description: First, anti-human Fc IgG was immobilized on the surface of the CM5 chip to 6000-10000 RU by amino coupling method, with FC1 as the reference channel. The coupling process was as follows: a freshly prepared 1:1 mixture of 50 mM NHS and 200 mM EDC was activated for 7 minutes, then injected with 10-50 ug/ml anti-human Fc IgG diluted in 10 mM sodium acetate ph5.0 buffer. The remaining activated sites were blocked with 1M ethanolamine. Then, HBS-EP+ buffer was used to dilute the antibody to be tested to 5 ug/ml (adjustable according to the capture level) and the antibodies were captured on the chip at a flow rate of 10 ul/min to obtain a response value of about 100˜300 RU. Then the antigen protein was diluted to 100 nM (the highest concentration was tentatively 100 nM), and flew through the chip surface at a flow rate of 30 ul/min. If enough signal value was obtained, the antigen-protein was diluted by several concentration gradients, and flew through the chip surface respectively. At the end of each cycle, the chip surface was regenerated with 10 mM Glycine at pH 1.5. The kinetic rate constant needed to be subtracted from the blank control, and the data was fitted with the global fit analysis method 1:1 combination model. The dissociation equilibrium rate constant (KD) was calculated according to the following formula: KD=kd/ka.

Row | Binder | Kd [nM] | koff [s⁻¹] | kon [M⁻¹ s⁻¹]
37 | B1 | 1.68 | 0.000184 | 110000
38 | B2 | 2.54 | 0.000254 | 100000
39 | B3 | 3.28 | 0.000316 | 96400
40 | B4 | 2.04 | 0.000193 | 94900

target: T1, human LAG-3 on cells (HEK293-hLAG-3 …); assay: FACS, HEK293-hLAG-3, antibody 1.6 nM

Row | Binder | Mean fluorescence intensity
41 | B1 | 188
42 | B2 | 178
43 | B3 | 163
44 | B4 | 179
45 | B5 | 173
46 | B6 | 151
47 | B7 | 174
48 | B8 | 134
49 | B9 | 218
50 | B10 | 184
51 | B11 | 164
52 | B12 | 142

target: T1, human LAG-3 on cells (HEK293-hLAG-3 …); assay: FACS, HEK293-hLAG-3, antibody 0 nM

Row | Binder | Mean fluorescence intensity
53 | B1 | 4
54 | B2 | 4
55 | B3 | 4
56 | B4 | 4
57 | B5 | 4
58 | B6 | 4
59 | B7 | 4
60 | B8 | 4
61 | B9 | 4
62 | B10 | 4
63 | B11 | 4
64 | B12 | 4

target: T1, human LAG-3 on cells (HEK293-hLAG-3 …); assay: FACS, HEK293-hLAG-3, antibody 0.013 nM
Source text: as §1

Row | Binder | Mean fluorescence intensity
65 | B1 | 11
66 | B2 | 11
67 | B3 | 9
68 | B4 | 9
69 | B5 | 11
70 | B6 | 10
71 | B7 | 9
72 | B8 | 8
73 | B9 | 14
74 | B10 | 11
75 | B11 | 11
76 | B12 | 11

target: T1, human LAG-3 on cells (HEK293-hLAG-3 …); assay: FACS, HEK293-hLAG-3, antibody 0.32 nM
Source text: as §1

Row | Binder | Mean fluorescence intensity
77 | B1 | 82
78 | B2 | 73
79 | B3 | 62
80 | B4 | 66
81 | B5 | 74
82 | B6 | 63
83 | B7 | 62
84 | B8 | 52
85 | B9 | 132
86 | B10 | 82
87 | B11 | 71
88 | B12 | 61

Reference: patent US20210155689A1 (SHANGHAI PHARMAEXPLORER, published 2021)
